In the DeepSol protein solubility set:

test: soluble on expression in E. coli; label from the status in PepcDB or PDB records

| Sequence | soluble on expression in E. coli |
| --- | --- |
| MIDKQSGIPIYIQIQSEIKKKMEDGVWKVGTSIPAERQLAEMFHVSRMTVRQAIQGLVDDNILQRRVGAGTFIAEKKLTERLEAVTSFTNLMLQEGKVPSTRIVSYGIRPASTQEQEALQLPENSNVMKIERIRYGDRVPILYEVAAIPEKIASLLTKEDIMDSLYKAIELKLGQPIGEAEQIMEASLVSEKIAPYLDVKLGSPVMKLRQITTLEDGRPFEFTRSQYVGSRFQFVARIKQ | not soluble |
| MEEKLLVNLKENSYNIFIKKNILKNIGEEIKKIYFGNKIFIVTDENIAKLYLDKVKNNLSESGFEIKSLILKSGEETKSFNTLPKIYDSLLDFKLTRKDLIITLGGGVIGDLGGFAAATFLRGISFIQIPTSLLAQVDSSVGGKVGVDLERGKNLVGSFYQPKAVFIDPNVLLSLPEKFYRDGMAEVIKYGCIKDKTFFNKLLSLKNREEVMQHIEYIIHKCCFIKKTVVEADEKDFGDRMLLNFGHTLGHAIEKYYNFTGYTHGEAVAIGMYKITLESEKIGITKKGTSELIKSILMNYNLPYEIELRDNKSIVDAISLDKKNLGDTLKIILLKDIGESIIYNTTSKFFQEVR | not soluble |
| MGSDKIHHHHHHMRYIDLAEMCIADISSGKLVKNSRMPSLRNFRQQHSISMTTALNCYQYLESLGWILARPQSGYFVCGQRMANEKPELVAFKSIMTDPKLPVVKPYYQHGNSSACAIDSAHNTSANHSVYQPANKDIVGPLGVARISTDFIPLDKLQNSFRRALKRQGSNISFYPDIQGEKILRDTLSSHFKSYDFHIPSDELLITNGCMDAIQTAIEICTDFGDAVAISSPCFNGILDMLAALGRKVVEIPSTEQGIDLVQLEQHMKSNQIKAGLFCTSHMNPQGISMTALQKQHLVNLAQTYKIPIIEDDVYIELAHGKVMPLPAKHWDKHGYILWCGSVSKTIAAGYRLGWCWPGRFTEQYLQKRKYCNQGVSSPVQLGLADFISNGDYAKHLKKLRVAIQQHTLSYQRYLTKNLPVASKISDPSGGFVLWIQVPNLNGRKLLALATEGNIDIRIGEQFSTRDLYQDYFRVNTGFMITEGNDKDTREEVDSQINKLMKLVKVASSERI | not soluble |
| TPYRAMYQYRPQNEDELELREGDRVDVMQQCDDGWFVGVSRRTQKFGTFPGNYVAPV | soluble |
| MGSDKIHHHHHHMNQEQNDIAIRVSNLSKCYHIYDTPRDRLKQFILPRLHHLTGQTPRQYFREFWALRDVSFEVKKGETIGIIGRNGSGKSTLLQMICGTLNPTSGSITTYGRIAALLELGSGFNPEFTGRENVYMNASVLGLSQEETDARFDDIAAFADIGEFIEQPVKTYSSGMMVRLGFAVQAQVKPDILIVDEALAVGDAKFQAKCFDRLQQLKDGGTSILLVTHSSEQIVTHCSEAILLDGGDVIEHGEPRYVVNHYMDLLFGKERKSYSASAFSTESNSVEPTQDDNLSLNFIDDVFSSHANYNEHEYRWGDGTATILDFYLLTDNEPYPSVITSGQSVVLGVAVRFYEDLVRPILGITIKTKEGVTVYGVNSETLETDEIKVLGSKGTTALIKAEFICRLAPGDYFISLGLATRKGEEIVPHDRRYDAIYLQIAPVTKFFGLVDLGLKLSAQNTSL | not soluble |
| VNAYDVLKRHHTVLKGLGRKVGEAPVNSEERHVLFDEMLIELDIHFRIEDDLYYPALSAAGKPITGTHAEHRQVVDQLATLLRTPQRAPGYEEEWNVFRTVLEAHADVEERDMIPAPTPVHITDAELEELGDKMAARIEQLRGSPLYTLRTKGKADLLKAI | not soluble |
| MGSDKIHHHHHHMAKIKHGFSGQRLIVYPFYVIEQALNNPLVADLVVHSMGYFPKAESHYIDRASGCGEYLLIYCTKGEGWYVLDGKRYVVPENHFFILPAEKPHQYGSSEHDPWYIYWAHFKGKKAKYISDQLQGVIPIDMDDNSRIGDRIAFFDELLNVLESGTDEATVNYVNLSFNHLIASFLYVKTYREAKFSKSKAENTFFISLATHFMTENLENKLTLKELASHFGYSESYMYRLFFKETGYAPMNYFLHMKIDRACQLLLHTNMKINQVALKLGFDDPYYFSRIFKKIVGTSPKDYRHSLPK | not soluble |
| MNLGFRVTGKFVRELLDVLDEIAEEIRQEEKEKYPYTEWERKREVVKERLRKLPEYVREAISVITVQKRVGRPKKVDLEKRVMLFLFARLMDKSNRDIEELLELFEPLFGIKVSYKTIERLYSDEEVRMALHNLFILLLREEGVSGDFSGDGTGYSLTITKHYRSNPKRKGKDFRYVFRIIDIDTGMYVGFGYSDRSEKDAFEKALGMLKSMGVKVNSISLDKYYSSRKTLRLFDAETAVYVIPKRNLARIGFDWLRVIERIVEAPYRFLKRYFKRNLSEAGFSADKRRFGWLIRQRREDRREMALFAVGLWHNVFAVRVVR | not soluble |
| MTWETVIGLEIHVQLNTKSKIFSGASTAFGAEPNAHASVVECALPGVLPVMNREVVEKAIKLGLALDAKINQKNVFDRKNYFYPDLPKGYQISQLDLPIVEHGKLEIVVGDDVKTINVTRAHMEEDAGKSVHEGLNGATGIDLNRAGTPLLEVVSEPEMRSAAEAVAYAKALHSLVTWLDICDGNMAEGSFRVDANVSVRPKGQEEFGTRREIKNLNSFRFLEQAINYEAEAQIEILEDGGKVQQATMLFDPEKGETRVMRLKEDAHDYRYFPDPDLLPVIISDAQMQKAKAEMPELPKEMAARFVADYGVSEYDARLLTASRAQAAYFEEAAKESGQGKLTANWMNGELAAALNKEGMELADSPITAPRLAALVGKIADGTLSSKLAKKAFEAMWAEPEATIAEIIEKHGLQQMTDTGEIEAMVDEVLANNAKAVEQFKSGNEKALNAIVGQVMKASKGKANPAQVQELIKAKLA | not soluble |
| MGSDKIHHHHHHMRGTIMDDLNDLYYFVKVVEHGGFTQAGRALGVPKSTLSRRIAALEAQYDVRLLQRTTRHFTVTETGREFYDRCLGVLVEAEAAREVIERKHAEPQGIVSLSCPTALLEYRVSGLVARFMAIHPKVQVHLEATNRRVDLLSEGIDLALRVRFPPLEDSGLVMRVLGDSPQRLVAAPHLLGGRDLPTSPDELAGVPSVDWGPPRHHLWQLVGPQGVEAQLRHHPRFITDDMHALRDAALHGVGIAQLPCMVVEDDLRDGTLVDVLPGWVPKGGVIHAVFPSRRGLLPRVRLLIDFLAAHIQKD | not soluble |
| MIADWLEQNGYPISSQVLKTEMSGNYMESAEKHVENGEKIDNLLRSQLKIDIRDGTGDDFERKSIKSIGAGRPFAKINMVDKQRAPLKITPLSDEEFRKTMRKRMEMERERLARLSNQAEDDSDDSSSSSDSSTSSASSSSEEKLTFSDILGKPTAAGAEKMIELSQIPNAWGPSKSALVTDDVASTSDPLPAIFNAHLPPLSMGRPPLTKSAKSREIDAIFGSDNVDYDLEDFEQDGVAKKKSILPMEKKKEEAKPKEQELVEPLVLSEGESIDELEDFDTGLLSSGGSDYSF | not soluble |
| MGSDKIHHHHHHMERVALACWDDFEAQLKKLDEEANAVEDARGDVRASGYLFRGHGDADYPLQTSLERFFARPLSLADYYRLALVAKPRLEAFTGRRWELPSQEAYAAWLEGAAGSTLDDYPAYDYLAYLRHHGFPSPLLDWTQSPYVAAFFAFRYPLPGAKAVAVYAYRDAPDAKTASSGAARIHRQGPYVSSDKRHFLQQSQYTFCTRTDDAGVVGYIGHEQAFRDVSPADRIRKFLIPLSARRQALMQLNRMNINAFSLFGSEDSLVETIAISDIYLRGGDL | not soluble |
| MGSDKIHHHHHHMIISVINLKGGSGKTTTAMALATAAARHNRNVSVLDTDPQGDATTWAGDAEDAGETLPFTVDSANIGKLKRLRKTMADDELVIIDCPPAGNVVDVACDVSDFVIVPATQGPFELSHALETAESLDAAGKPYALLLLKVENNKLAGNAVNLIRERGASVFDASVPKRVGMQKVIGHAFPSNLNGYEDVYSELEEVIA | not soluble |
| MDYQQDEYDEPFRIHLNLDNLTEDEAKARFSLIYDQHAQTMKRRETNDYLRPICIDGTDVSNKLNHIIRKNMDLFPVDKSIFNMRAITMALWYFISRGHAAVVFLPTNLRDFAQKCSDPHELSLLAKLELIVFDESTALNPSSAVLLSKTVATWAQNNDGCIVGSRKKYGLLGQRYSELIDRVTNTLISPAFTPDNELEICDLVRLVLAADEVRRNDENSNCMGYQLLASDQVVIMSKLAKMIGKDSMIDLCNRARELNTSTNPNYRNIFNNQKQSTSMGRVYQSPYHFNDPFLPDYVAPPPPIALESVAKPTRIGHRHSIYRVGEDKSTELENGDNRRKAVYRGALIDALQPMFGLEKATALVNGNPDQNEINDLIELGINQ | not soluble |
| MGSDKIHHHHHHMKYPNETSGTADYTVIKGLVTSNGDTGHDSIALDTATQLTAEDVKHFRDYGFSIVGRYLTGTVGTDYKPKNLTSTEIKTILDGGMKFFPIYEDGGYVESYFTASQGQKDAQTAIKTALDLELPAGTVIYFAVDVDFQDGDIDGTVIPYIKAIQNILSQSIYKTGIYGTRNVCLHAERVGIGFSFVANMSYGWSGNLGFKMPDNWAFDQFVEYPIYGIDIDQTASSGLDKGISGVAQTTPEVQTGYLANQLLSVFPDYHNLFGTINWTVSAPEQHLSTPIADYYITLEDKWIATVVDDKTGTLTIQDAKMLNQTADVMKQFESAMSSYDIGDLSGAFNKLAPMIGNGAIKAGLAIRDGMVGFKIAIEGSFESSTSSSSVEGKYTLTLETYIHRDQVPKNAYDPVYQPVTEPNPVFAVDLGKVATTVVIGLLVSSMLPEVGGGAALVELFNVVKTIFAVA | not soluble |
| MGEEFEKLMKKFENVNKDGEIVEDEDEWEEFFKQEEYVKIPKDRIAVLIGKKGQTKKEIEKRTKTKITIDSETGEVWITSTKETEDPLAVWKARDIVLAIGRGFSPERAFRLLNEGEYLEIINLTDIIIGNEKNALPRVRGRIIGRKGRTRQIIEEMSGASVSVYGKTVAIIGNPIQIEIAKTAIEKLARGSPHGSVYRYLERRKKDLELEGAMYYENL | soluble |
| MSLTLVDIHCHILPGIDDGSKDWETSIKLARDAVKDGITHAVCTPHTLNGKYLNHKDDVIRLTENFQDMLDEAKIPLTVFPGQEVRISGDLPDALDNDDILFLDEEGQYMLLEFPSDDVPTYAKDMIFSIQQRGITPIVVHPERNSRILKEPHILQELIEQGCLVQITASSYVGTFGQKIEEMSRRFIEAGQCACFASDAHDLPKRQYEYSAALKKLSNEFGSGRAQEFEDNARAIVNGDNVQLNWRPLKKKKKFWLFEGHHHHHH | not soluble |
| MDMRSHEMIERRREDNGNNNGGVVISNIISTNIDDNCNGNNNNTRVSCNSQTLDHHQSKSPSSFSISAAAKPTVRYRECLKNHAASVGGSVHDGCGEFMPSGEEGTIEALRCAACDCHRNFHRKEMDGVGSSDLISHHRHHHYHHNQYGGGGGRRPPPPNMMLNPLMLPPPPNYQPIHHHKYGMSPPGGGGMVTPMSVAYGGGGGGAESSSEDLNLYGQSSGEGAGAAAGQMAFSMSSSKKRFRTKFTTDQKERMMDFAEKLGWRMNKQDEEELKRFCGEIGVKRQVFKVWMHNNKNNAKKPPTPTTTL | not soluble |
| MKKIGIIGAGGIARAHATALSTIKNAELVGVYDINQQNAESFVKTFGGKSFENVDELIDASEGLIVASPNFCHKEHALQALGKHKHVLCEKPMAISLEEASIMKDTAERLSVRASMGFNYRYLSYVNILKSLIINNELGNILSIKVHFKKNSALRRKKFTWRDDANSKKTSGSLGDLGIHLIDMVWYLFESDFITESVRAKMNTNVKTKEDKQVLVDDYAEIYGQLRNKVFVNIITSKCSVPEDCGFSIEVVGHKKEFKYHTGNPHVYKLIDGLNVVDCPVPQSLLNDPPNEFYGWADSFRSELINWIASTQNDWVEIPSFSDGFRSQEVLEMFFEKDSNSQPMSVSAVNLEHHHHHH | not soluble |
